Tests used:
human fibrinogen = target: T1, human fibrinogen (Homo sapiens, UniProt P02671+P02675+P02679); assay: Fibrin clot turbidity and scanning electron microscopy; conditions: fibrin polymerization assay
T1 sequence (P02671 20-644 isoform P02671-2 limits assumed): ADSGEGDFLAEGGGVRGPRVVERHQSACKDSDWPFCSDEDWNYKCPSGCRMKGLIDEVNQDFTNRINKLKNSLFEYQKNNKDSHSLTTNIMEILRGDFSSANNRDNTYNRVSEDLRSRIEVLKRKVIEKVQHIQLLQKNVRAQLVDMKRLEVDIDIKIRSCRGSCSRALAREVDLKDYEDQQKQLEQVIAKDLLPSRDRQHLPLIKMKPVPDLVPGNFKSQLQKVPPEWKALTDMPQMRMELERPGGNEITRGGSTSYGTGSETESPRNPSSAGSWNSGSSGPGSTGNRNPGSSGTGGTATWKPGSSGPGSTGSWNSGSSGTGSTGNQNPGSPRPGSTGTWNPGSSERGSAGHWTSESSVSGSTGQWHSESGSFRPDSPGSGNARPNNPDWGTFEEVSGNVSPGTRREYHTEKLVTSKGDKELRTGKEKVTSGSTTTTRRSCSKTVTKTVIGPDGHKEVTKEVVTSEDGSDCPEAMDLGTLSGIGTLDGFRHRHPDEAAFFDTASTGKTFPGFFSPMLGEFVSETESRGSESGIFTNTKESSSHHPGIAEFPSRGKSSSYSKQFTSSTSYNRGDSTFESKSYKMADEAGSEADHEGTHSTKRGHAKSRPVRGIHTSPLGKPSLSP
T1 sequence (P02675 45-491 limits assumed): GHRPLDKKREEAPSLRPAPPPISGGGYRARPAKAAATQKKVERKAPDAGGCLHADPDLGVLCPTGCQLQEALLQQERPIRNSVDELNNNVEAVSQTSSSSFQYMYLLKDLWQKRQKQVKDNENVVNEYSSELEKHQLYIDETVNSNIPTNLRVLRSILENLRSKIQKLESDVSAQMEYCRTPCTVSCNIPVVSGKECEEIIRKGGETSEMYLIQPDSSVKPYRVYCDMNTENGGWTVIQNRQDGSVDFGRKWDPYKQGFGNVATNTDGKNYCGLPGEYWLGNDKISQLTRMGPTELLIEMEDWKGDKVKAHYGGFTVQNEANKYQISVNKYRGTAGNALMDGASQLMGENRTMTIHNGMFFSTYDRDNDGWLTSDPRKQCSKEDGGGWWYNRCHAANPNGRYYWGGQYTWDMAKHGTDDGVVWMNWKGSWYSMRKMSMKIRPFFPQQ
T1 sequence (P02679 27-437 isoform P02679-2 limits assumed): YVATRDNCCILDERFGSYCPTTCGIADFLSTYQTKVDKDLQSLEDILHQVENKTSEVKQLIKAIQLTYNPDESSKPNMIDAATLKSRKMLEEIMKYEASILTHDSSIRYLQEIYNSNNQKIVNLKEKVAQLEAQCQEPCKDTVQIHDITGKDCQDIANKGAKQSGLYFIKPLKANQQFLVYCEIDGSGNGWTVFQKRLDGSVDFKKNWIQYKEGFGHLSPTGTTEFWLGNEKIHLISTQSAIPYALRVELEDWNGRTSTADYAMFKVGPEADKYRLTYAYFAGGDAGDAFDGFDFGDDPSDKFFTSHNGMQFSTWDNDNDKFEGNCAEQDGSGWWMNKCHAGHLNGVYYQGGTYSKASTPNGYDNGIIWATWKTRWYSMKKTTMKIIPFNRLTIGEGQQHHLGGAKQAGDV
Description: The morphology of clots formed in presence of UHRA and protamine was determined by scanning electron microscopy (SEM) analysis. All samples for SEM were randomly coded and blinded to the individual performing imaging and analysis to avoid bias. Fibrin clots were formed in sterile round-bottomed 5 mL polypropylene tubes (BD Falcon) by mixing purified human fibrinogen (200 μL, 3 mg/mL) in 20 mM HEPES (pH 7.4 and 150 mM NaCl) with 2.5 NIHU/mL thrombin and 3 mM CaCl2 and UHRA or protamine (in HEPES buffer) (0-500 μg/mL). All concentrations are final. Control clot was prepared in the absence of UHRA or protamine. After incubating the solution for 1 hour at 37° C., clots were immediately fixed using karnovsky fixative (2.5% glutaraldehyde and 4% formaldehyde) and repeatedly washed with 0.1 M sodium cacodylate buffer (pH=7.4) followed by post-fixation with 1% v/v osmium tetroxide. The samples were washed three times with distilled water and then dehydrated with gradient ethanol series (20-95% v/v). […] Fiber diameters of all clots were measured with image analysis software package ImageJ™ (National Institutes of Health, USA). Fiber diameter (n=30) from 8 separate areas of each clot was measured and used for calculating the average fiber size formed.

[1] = system: platelets in human platelet-rich plasma; assay: Platelet activation by flow cytometry (CD62P); format: cell-based; conditions: highest dose
Description: Blood from healthy consented donors was either collected into 3.8% sodium citrate tube with a blood/anticoagulant ratio of 9:1 or serum tube at Centre for Blood Research, University of British Columbia. The protocol was approved by the University of British Columbia clinical ethical committee and written consent was obtained from each individual donor. Platelet-rich plasma (PRP) was prepared by centrifuging citrated whole blood samples at 150×g for 10 min in an Allegra X-22R™ Centrifuge (Beckman Coulter™, Canada). Serum was prepared by centrifuging the blood collected in serum tube at 1200×g for 30 min one hour after blood collection.
The level of platelet activation after exposure to polyP inhibitors was quantified by flow cytometry. Ninety microliters of platelet rich plasma (PRP) was incubated at 37° C. with 10 μL of either 10 mg/mL or 20 mg/mL of UHRA, protamine or PEI stock solution (final polymer concentration 1 mg/mL and 2 mg/mL respectively) in PBS. […] The level of platelet activation was analyzed in a BD FACSCanto II flow cytometer (Becton Dickinson™) by gating platelets specific events based on their forward scattering profile (size of individual platelet). Activation of platelets was expressed as the percentage of platelet activation marker CD62-PE fluorescence detected in the 10,000 total events counted. […]

[2] = mice; intravenous injection; for UHRAs maximum injected dose, maximum tolerated dose not reached; cited from earlier work

**Q.** Which “final turbidity (A405) of fibrin clots” value (human fibrinogen) does the source give for protamine sulfate here?
**A.** The value was “elevated final turbidity”.

**Q.** And the “platelet activation (CD62P expression)” value [1]?
**A.** The value was “about 30%”.

**Q.** And the “dose tolerated (up to)” value [2]?
**A.** The value was “up to 20 mg/kg”.
